IntAct's records for PubMed 17711851

B1: Golgi resident protein GCP60 (Homo sapiens), Q9H3P7 (parent)
chain: MAAVLNAERLEVSVDGLTLSPDPEERPGAEGAPLLPPPLPPPSPPGSGRGPGASGEQPEPGEAAAGGAAEEARRLEQRWGFGLEELYGLALRFFKEKDGKAFHPTYEEKLKLVALHKQVLMGPYNPDTCPEVGFFDVLGNDRRREWAALGNMSKEDAMVEFVKLLNRCCHLFSTYVASHKIEKEEQEKKRKEEEERRRREEEERERLQKEEEKRRREEEERLRREEEERRRIEEERLRLEQQKQQIMAALNSQTAVQFQQYAAQQYPGNYEQQQILIRQLQEQHYQQYMQQLYQVQLAQQQAALQKQQEVVVAGSSLPTSSKVNATVPSNMMSVNGQAKTHTDSSEKELEPEAAEEALENGPKESLPVIAAPSMWTRPQIKDFKEKIQQDADSVITVGRGEVVTVRVPTHEEGSYLFWEFATDNYDIGFGVYFEWTDSPNTAVSVHVSESSDDDEEEEENIGCEEKAKKNANKPLLDEIVPVYRRDCHEEVYAGSHQYPGRGVYLLKFDNSYSLWRSKSVYYRVYYTR
partner: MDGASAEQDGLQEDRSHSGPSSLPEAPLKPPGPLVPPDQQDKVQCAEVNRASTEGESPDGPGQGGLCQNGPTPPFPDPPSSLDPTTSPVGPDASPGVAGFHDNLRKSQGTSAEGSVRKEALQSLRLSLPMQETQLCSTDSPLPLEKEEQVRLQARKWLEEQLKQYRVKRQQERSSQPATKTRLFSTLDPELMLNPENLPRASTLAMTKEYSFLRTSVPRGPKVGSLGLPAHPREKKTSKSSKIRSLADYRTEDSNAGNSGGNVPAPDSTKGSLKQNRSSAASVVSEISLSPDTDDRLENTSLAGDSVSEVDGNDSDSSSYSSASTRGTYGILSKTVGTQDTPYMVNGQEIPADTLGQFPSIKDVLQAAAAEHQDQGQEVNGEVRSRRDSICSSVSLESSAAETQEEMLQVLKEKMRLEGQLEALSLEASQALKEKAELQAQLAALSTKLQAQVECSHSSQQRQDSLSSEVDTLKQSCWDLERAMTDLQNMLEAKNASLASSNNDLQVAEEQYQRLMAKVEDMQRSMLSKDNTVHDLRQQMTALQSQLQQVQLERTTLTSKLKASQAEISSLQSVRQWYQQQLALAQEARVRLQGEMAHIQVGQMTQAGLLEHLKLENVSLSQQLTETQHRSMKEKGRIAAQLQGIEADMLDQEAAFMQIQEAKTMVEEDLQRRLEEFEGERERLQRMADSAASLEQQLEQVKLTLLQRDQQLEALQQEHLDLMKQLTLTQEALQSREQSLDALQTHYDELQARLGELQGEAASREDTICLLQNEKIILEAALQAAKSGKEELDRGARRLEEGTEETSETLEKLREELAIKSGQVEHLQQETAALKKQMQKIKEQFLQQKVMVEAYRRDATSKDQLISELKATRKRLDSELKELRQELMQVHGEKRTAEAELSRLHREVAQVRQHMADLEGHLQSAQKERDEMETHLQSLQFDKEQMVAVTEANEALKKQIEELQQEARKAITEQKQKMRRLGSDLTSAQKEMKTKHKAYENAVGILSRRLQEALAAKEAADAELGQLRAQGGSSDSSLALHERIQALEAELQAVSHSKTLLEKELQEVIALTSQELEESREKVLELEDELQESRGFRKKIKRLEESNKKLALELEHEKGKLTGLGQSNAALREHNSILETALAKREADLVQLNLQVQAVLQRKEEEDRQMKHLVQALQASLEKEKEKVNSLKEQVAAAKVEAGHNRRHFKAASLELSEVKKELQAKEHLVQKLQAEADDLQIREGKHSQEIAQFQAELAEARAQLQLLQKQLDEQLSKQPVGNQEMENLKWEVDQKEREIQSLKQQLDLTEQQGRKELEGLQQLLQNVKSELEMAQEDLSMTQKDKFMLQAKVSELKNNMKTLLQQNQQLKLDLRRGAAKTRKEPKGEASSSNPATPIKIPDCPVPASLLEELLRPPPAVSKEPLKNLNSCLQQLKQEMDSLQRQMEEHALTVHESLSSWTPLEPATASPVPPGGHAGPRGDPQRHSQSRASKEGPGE

Variants of: B1
Conditions: with goga3_human GOLGA3, Q08378

Variant	effect of a mutation on the interaction
C463S	disrupting interaction
